# Substitutions are numbered along the chain they refer to. Names and notes keep the numbering of the source.
# B1: variant PD-L1 IgV-Fc A33D/S75P (IgV SEQ ID NO 285) (Fc fusion)
# chain: FTVTVPKDLYVVEYGSNMTIECKFPVEKQLDLDALIVYWEMEDKNIIQFVHGEEDLKVQHSSYRQRARLLKDQLPLGNAALQITDVKLQDAGVYRCVISYGGADYKRITVKVNAAAAEPKSSDKTHTCPPCPAPELLGGPSVFLFPPKPKDTLMISRTPEVTCVVVDVSHEDPEVKFNWYVDGVEVHNAKTKPCEEQYGSTYRCVSVLTVLHQDWLNGKEYKCKVSNKALPAPIEKTISKAKGQPREPQVYTLPPSREEMTKNQVSLTCLVKGFYPSDIAVEWESNGQPENNYKTTPPVLDSDGSFFLYSKLTVDKSRWQQGNVFSCSVMHEALHNHYTQKSLSLSPGK
# B2: non-stack variant CD155 IgV-Fc control (P18S/S65W/S67A/L104Q/G111R) (Fc fusion)
# chain: WPPPGTGDVVVQAPTQVSGFLGDSVTLPCYLQVPNMEVTHVSQLTWARHGESGSMAVFHQTQGPWYAESKRLEFVAARLGAELRNASLRMFGLRVEDEGNYTCQFVTFPQRSRSVDIWLRVLAAAEPKSSDKTHTCPPCPAPELLGGPSVFLFPPKPKDTLMISRTPEVTCVVVDVSHEDPEVKFNWYVDGVEVHNAKTKPCEEQYGSTYRCVSVLTVLHQDWLNGKEYKCKVSNKALPAPIEKTISKAKGQPREPQVYTLPPSREEMTKNQVSLTCLVKGFYPSDIAVEWESNGQPENNYKTTPPVLDSDGSFFLYSKLTVDKSRWQQGNVFSCSVMHEALHNHYTQKSLSLSPGK
# B3: variant PD-L1 IgV-Fc P6S, N45T, N78I, I83T (Fc fusion)
# chain: B1 chain with P6S, D33A, N45T, P75S, N78I, I83T, V97M
# B4: variant PD-L1 IgV-Fc A33D, S75P (SEQ ID NO 285) (Fc fusion)
# chain: B1 chain
# B5: variant PD-L1 IgV-Fc I20L, N45T, V110M (Fc fusion)
# chain: B1 chain with I20L, D33A, N45T, P75S, V97M, V110M
# B6: variant PD-L1 IgV-Fc A33D, V50A (Fc fusion)
# chain: B1 chain with V50A, P75S, V97M
# B7: variant PD-L1 IgV-Fc A33D, S75P, D104G (Fc fusion)
# chain: B1 chain with V97M, D104G
# B8: variant PD-L1 IgV-Fc A33D, N45T, N78I (Fc fusion)
# chain: B1 chain with N45T, P75S, N78I, V97M
# B9: variant PD-L1 IgV-Fc S75P, K106R (Fc fusion)
# chain: B1 chain with D33A, V97M, K106R
# Biological target: human PD-1 stably expressed on Jurkat/IL-2 reporter cells (Jurkat/PD-1 cells) (human) (UniProt Q15116)
# Assay: flow cytometry, Jurkat/PD-1 cells
# Sequence of human PD-1 stably expressed on Jurkat/IL-2 reporter cells (Jurkat/PD-1 cells) (human) (Q15116 25-288 limits assumed): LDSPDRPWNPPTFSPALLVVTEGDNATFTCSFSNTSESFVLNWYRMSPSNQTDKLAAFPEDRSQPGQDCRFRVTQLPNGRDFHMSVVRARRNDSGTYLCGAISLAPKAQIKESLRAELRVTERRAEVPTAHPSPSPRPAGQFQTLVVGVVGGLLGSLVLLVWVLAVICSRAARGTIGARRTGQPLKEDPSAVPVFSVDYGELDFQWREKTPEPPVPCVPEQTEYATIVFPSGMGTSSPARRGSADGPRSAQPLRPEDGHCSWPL
row,MFI at 50 nM [MFI],Binder
1,306,B1

# Biological target: TIGIT/CD112R/PD1 (Jurkat/PD-1/TIGIT cells carrying PD-1, TIGIT and endogenous CD112R)
# Assay: flow cytometry, Jurkat/PD-1/TIGIT cells
row,MFI at 33.3nM [MFI],Binder
1,961,B2

# Biological target: human PD-1 stably expressed on Jurkat/IL-2 reporter cells (Jurkat/PD-1 cells) (human) (UniProt Q15116)
# Assay: flow cytometry, Jurkat/PD-1 cells, MFI vs wildtype PD-L1 IgV-Fc
row,Fold increase over wildtype PD-L1 IgV-Fc [fold],Binder
1,0.1,B1

# Biological target: human PD-1 and human TIGIT both stably expressed on Jurkat cells (Jurkat/PD-1/TIGIT cells)
# Assay: flow cytometry, Jurkat/PD-1/TIGIT cells, 20 nM
row,MFI at 20 nM [MFI],Binder
1,7910,B2

# Biological target: PD-1 (human) (UniProt Q15116)
# Assay: cell-based or functional assay
# Sequence of PD-1 (human) (Q15116 25-288): as the sequence (Q15116 25-288 limits assumed) above
Average Relative Luminescence Units [RLU],Fold increase in IL2 reporter signal [fold],Binder
2250,1.01,B3
2170,0.97,B4
2210,0.99,B5
2250,1.01,B6
2170,0.97,B7
1970,0.89,B8
2130,0.95,B9

# Reference: US20260062456A1
